The values that follow come from patent US20180244796A1 (CARSGEN THERAPEUTICS, published 2018).

To fix the notation:
B1: P1A6E monoclonal antibody (antibody, V domains shown)
VH: QVQLEQSGLGLVKPSQTLSLTCAISGDTVSSDSAAWNWIRQSPSRGLEWLGRTYYRSKWFNDYAVSVKGRITINSDTSKNQFSLQLNSVTPEDTAVYYCARSNSYYYYAMDVWGQGTLVTVSS
VL: QAVLTQPSSLSASPGASASLTCTLRSGINVGIYRIYWYQQRPGSPPQILLTYKSDSDKYQGSGVPSRFSGSKDASANAGILLISGLQSEDEADYYCMIWHSGGWVFGGGTKVTVLG
notes: Full antibody: VH in plasmid pIH with human IgG1 CH gene, VL in plasmid pIK with human IgG CL gene; also called monoclonal antibody P1A6E
B2: single chain antibody P1A6E (phage-displayed, single phage ELISA) (scFv)
scFv: QVQLEQSGLGLVKPSQTLSLTCAISGDTVSSDSAAWNWIRQSPSRGLEWLGRTYYRSKWFNDYAVSVKGRITINSDTSKNQFSLQLNSVTPEDTAVYYCARSNSYYYYAMDVWGQGTLVTVSSGGGGSGGGGSGGGGSQAVLTQPSSLSASPGASASLTCTLRSGINVGIYRIYWYQQRPGSPPQILLTYKSDSDKYQGSGVPSRFSGSKDASANAGILLISGLQSEDEADYYCMIWHSGGWVFGGGTKVTVLG
notes: the fusion to the phage coat protein is not described
B3: chimeric antigen receptor P1A6E-BBZ on CTL cells (receptor)
chain: QVQLEQSGLGLVKPSQTLSLTCAISGDTVSSDSAAWNWIRQSPSRGLEWLGRTYYRSKWFNDYAVSVKGRITINSDTSKNQFSLQLNSVTPEDTAVYYCARSNSYYYYAMDVWGQGTLVTVSSGGGGSGGGGSGGGGSQAVLTQPSSLSASPGASASLTCTLRSGINVGIYRIYWYQQRPGSPPQILLTYKSDSDKYQGSGVPSRFSGSKDASANAGILLISGLQSEDEADYYCMIWHSGGWVFGGGTKVTVLGTTTPAPRPPTPAPTIASQPLSLRPEACRPAAGGAVHTRGLDFACDIYIWAPLAGTCGVLLLSLVITLYCKRGRKKLLYIFKQPFMRPVQTTQEEDGCSCRFPEEEEGGCELRVKFSRSADAPAYKQGQNQLYNELNLGRREEYDVLDKRRGRDPEMGGKPRRKNPQEGLYNELQKDKMAEAYSEIGMKGERRRGKGHDGLYQGLSTATKDTYDALHMQALPPR
notes: Expressed on human CTL cells by lentivirus; also called scFv(MSLN)-CD8-CD137-CD3 zeta
B4: single chain antibody P3F2 (phage-displayed, single phage ELISA) (scFv)
scFv: QMQLVQSGAEVKKPGASVKVSCKASGYTFTSYYMHWVRQAPGQGLEWMGIINPSGGSTSYAQKFQGRVTMTRDTSTSTVYMELSSLRSEDTAVYYCASSRSGTTVVNHDAFDIWGKGTTVTVSSGGGGSGGGGSGGGGSDIQLTQSPSSLSASVGDRVTITCRASQVISRALAWYQQTPGKPPKLLIYDASNLQSGVPSRFSGSGSGTDFTLTISRLQPEDFATYYCQQFNSYPLTFGGGTKLEIKR
notes: as for B2
B5: chimeric antigen receptor P3F2-BBZ on CTL cells (receptor)
chain: QMQLVQSGAEVKKPGASVKVSCKASGYTFTSYYMHWVRQAPGQGLEWMGIINPSGGSTSYAQKFQGRVTMTRDTSTSTVYMELSSLRSEDTAVYYCASSRSGTTVVNHDAFDIWGKGTTVTVSSGGGGSGGGGSGGGGSDIQLTQSPSSLSASVGDRVTITCRASQVISRALAWYQQTPGKPPKLLIYDASNLQSGVPSRFSGSGSGTDFTLTISRLQPEDFATYYCQQFNSYPLTFGGGTKLEIKRTTTPAPRPPTPAPTIASQPLSLRPEACRPAAGGAVHTRGLDFACDIYIWAPLAGTCGVLLLSLVITLYCKRGRKKLLYIFKQPFMRPVQTTQEEDGCSCRFPEEEEGGCELRVKFSRSADAPAYKQGQNQLYNELNLGRREEYDVLDKRRGRDPEMGGKPRRKNPQEGLYNELQKDKMAEAYSEIGMKGERRRGKGHDGLYQGLSTATKDTYDALHMQALPPR
notes: as for B3
B6: chimeric antigen receptor P1A6E-δZ on CTL cells (receptor)
chain: QVQLEQSGLGLVKPSQTLSLTCAISGDTVSSDSAAWNWIRQSPSRGLEWLGRTYYRSKWFNDYAVSVKGRITINSDTSKNQFSLQLNSVTPEDTAVYYCARSNSYYYYAMDVWGQGTLVTVSSGGGGSGGGGSGGGGSQAVLTQPSSLSASPGASASLTCTLRSGINVGIYRIYWYQQRPGSPPQILLTYKSDSDKYQGSGVPSRFSGSKDASANAGILLISGLQSEDEADYYCMIWHSGGWVFGGGTKVTVLGTTTPAPRPPTPAPTIASQPLSLRPEACRPAAGGAVHTRGLDFACDIYIWAPLAGTCGVLLLSLVITRVKFSRSADAPA
notes: Expressed on human CTL cells by lentivirus; also called P1A6E-δZ (negative control); P1A6E-δZ (mock)
B7: P3F2 monoclonal antibody (antibody, V domains shown)
VH: QMQLVQSGAEVKKPGASVKVSCKASGYTFTSYYMHWVRQAPGQGLEWMGIINPSGGSTSYAQKFQGRVTMTRDTSTSTVYMELSSLRSEDTAVYYCASSRSGTTVVNHDAFDIWGKGTTVTVSS
VL: DIQLTQSPSSLSASVGDRVTITCRASQVISRALAWYQQTPGKPPKLLIYDASNLQSGVPSRFSGSGSGTDFTLTISRLQPEDFATYYCQQFNSYPLTFGGGTKLEIKR
notes: Full antibody: VH in plasmid pIH with human IgG1 CH gene, VL in plasmid pIK with human IgG CL gene; also called monoclonal antibody P3F2
B8: purified human mesothelin protein (recombinant, 6xHis tag) (other)
chain: EVEKTACPSGKKAREIDESLIFYKKWELEACVDAALLATQMDRVNAIPFTYEQLDVLKHKLDELYPQGYPESVIQHLGYLFLKMSPEDIRKWNVTSLETLKALLEVNKGHEMSPQVATLIDRFVKGRGQLDKDTLDTLTAFYPGYLCSLSPEELSSVPPSSIWAVRPQDLDTCDPRQLDVLYPKARLAFQNMNGSEYFVKIQSFLGGAPTEDLKALSQQNVSMDLATFMKLRTDAVLPLTVAEVQKLLGPHVEGLKAEERHRPVRDWILRQRQDDLDTLGLGLQGHHHHHH
notes: also called hu-mesothelin; human mesothelin recombinant protein
B9: chimeric antigen receptor P3F2-δZ on CTL cells (receptor)
chain: QMQLVQSGAEVKKPGASVKVSCKASGYTFTSYYMHWVRQAPGQGLEWMGIINPSGGSTSYAQKFQGRVTMTRDTSTSTVYMELSSLRSEDTAVYYCASSRSGTTVVNHDAFDIWGKGTTVTVSSGGGGSGGGGSGGGGSDIQLTQSPSSLSASVGDRVTITCRASQVISRALAWYQQTPGKPPKLLIYDASNLQSGVPSRFSGSGSGTDFTLTISRLQPEDFATYYCQQFNSYPLTFGGGTKLEIKRTTTPAPRPPTPAPTIASQPLSLRPEACRPAAGGAVHTRGLDFACDIYIWAPLAGTCGVLLLSLVITRVKFSRSADAPA
notes: Expressed on human CTL cells by lentivirus; also called P3F2-δZ (negative control); P3F2-δZ (mock)

For assay [1], the target named is B8. As to the kind of experiment: SPR Biacore T200, antibody captured by anti-human IgG (Fc), human mesothelin as analyte, 25 C. The method, then: (§1) To quantitatively analyze the binding of an antibody to human mesothelin, the affinity and kinetic parameters of single-chain antibody and monoclonal antibody of P1A6E and P3F2 were measured by capture method using Biacore T200 system (from GE). An anti-human IgG (Fc) antibody (purchased from GE) was coupled to carboxymethyl dextran surface of sensor chip […] through primary amino with NHS/EDC coupling according to the manufacturer's instructions. Measurements were performed in 1×HBS-EP+working buffer at 25° C., 30 μl/min, and regeneration condition was 3 M MgCl2, 10 μl/min for 30 seconds. In each round of the testing cycle, the antibody to be tested is firstly captured onto the chip. Analyte (human mesothelin) of a certain concentration flowed over the chip surface. Due to the produced SPR signal, the interaction between human mesothelin and the captured antibody can be detected. The detected signal is defined as resonance unit (RU), which was plotted vs time (second) to obtain the corresponding binding curve and dissociation curve. In different test cycles, concentrations of human mesothelin were 10 nM, 20 nM, 40 nM, 80 nM and 160 nM, respectively. The resulting curves were evaluated using Biacore T200 evaluation software and the affinity KD values were calculated. FIG. 5 and FIG. 6 show kinetic curves of the monoclonal antibodies P1A6E and P3F2, in a Biacore Affinity Assay, respectively.

Assay [2] deals with T1, BSA (bovine serum albumin) (bovine, UniProt P02769 25-607).
T1 construct: also called negative control protein BSA
As to the kind of experiment: single phage ELISA, 100 ng/well coated BSA, anti-M13 detection. The method, then:
96 clones were randomly selected in the clones obtained from the fourth round of screening and their binding capability to human mesothelin was analyzed by single phage ELISA (enzyme-linked immunosorbent assay). For this purpose, each single colony was inoculated in 300 μl of 2×YT/ampicillin medium (containing 2% glucose) in a 96-well deep-well plate and cultured with shaking at 37° C. and 250 rpm for 16 hours. 20 μl of culture was inoculated into 500 μl of 2×YT/ampicillin medium (containing 0.1% glucose) and shaken at 37° C. and 250 rpm for 1.5 hours. To prepare the helper phage solution, 75 μl of M13KO7 (titer of 3×10¹² pfu/ml) was taken and mixed into 15 ml of 2×YT medium and added into a culture plate at 50 μl/well, and incubated at 37° C. and 150 rpm for 30 minutes. And then prepared kanamycin solution (180 μl of 50 mg/ml kanamycin was taken and added into 15 ml of 2×YT medium) was added at 50 μl/well and incubated with shaking for 16 hours at 37° C. and 250 rpm. […]
For single phage ELISA, 100 ng/well of antigen human mesothelin and negative control protein BSA (100 μl/well) were used in a 96-well MediSorp ELISA plate (purchased from Nunc) and coated overnight at 4° C. […] Extinction values were measured at 450 nm with an enzyme-linked immunosorbent (Bio-Rad).
Background: An ELISA detects its analyte on a solid surface through an enzyme-linked reagent.

The target in assay [3] is B8. As to the kind of experiment: flow cytometry; CAR T cells stained with biotinylated human mesothelin recombinant protein and PE-labeled streptavidin. The method, then: Infected CTL cells were detected by flow cytometry on day 8 of culture for the expression of different chimeric antigen receptors. Firstly, the infected CAR T cells were incubated with biotinylated human mesothelin recombinant protein for 1 h at 37° C., washed in D-PBS twice and then incubated with PE-labeled streptavidin for 40 min at 37° C. After washed with D-PBS for 3 times, the ratio of positive cells was determined by flow cytometry. Uninfected T lymphocytes was used as a negative control, the positive rates of virus-infected T cells expressing different chimeric antigen receptors are shown in Table 3.
For orientation: A flow cytometer gives signals particle by particle.

The target in assay [4] is human mesothelin on PANC-1-MSLN cells (human, UniProt Q13421 296-598). As to the kind of experiment: cell-based or functional assay.
The next assay has as its target T2, scFv-P3F2-Fc (human, UniProt P01857-1 99-330 = IgG part, limits assumed).
T2 construct: domain: Fc fragment; scFv cloned NheI/BamHI into pCMV-V5-Fc, expressed in HEK-293F, protein A purified; also called P3F2 single chain antibody; P3F2 single chain antibod
As to the kind of experiment: SPR Biacore T200, antibody captured by anti-human IgG (Fc), human mesothelin as analyte, 25 C. The method, then: as §1

In another assay the target is T3, scFv-P1A6E-Fc (human, UniProt P01857-1 99-330 = IgG part, limits assumed).
T3 construct: domain: Fc fragment; scFv cloned NheI/BamHI into pCMV-V5-Fc, expressed in HEK-293F, protein A purified; also called P1A6E single chain antibody; antibody-Fc fusion protein scFv-P1A6E-Fc
The assay is described as above. The method, then: as §1

human mesothelin on PANC-1-MSLN cells, sequence (Q13421 other isoform, or with tags, fused parts or gaps limits assumed): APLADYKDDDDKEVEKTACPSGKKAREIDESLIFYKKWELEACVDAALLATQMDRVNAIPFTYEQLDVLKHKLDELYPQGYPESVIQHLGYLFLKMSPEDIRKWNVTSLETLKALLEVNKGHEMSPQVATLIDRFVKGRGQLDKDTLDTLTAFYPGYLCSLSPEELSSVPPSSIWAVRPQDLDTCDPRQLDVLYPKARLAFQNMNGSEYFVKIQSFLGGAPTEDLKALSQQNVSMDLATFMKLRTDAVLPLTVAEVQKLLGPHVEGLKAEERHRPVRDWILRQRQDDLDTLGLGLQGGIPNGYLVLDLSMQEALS
T1 sequence (P02769 25-607 limits assumed): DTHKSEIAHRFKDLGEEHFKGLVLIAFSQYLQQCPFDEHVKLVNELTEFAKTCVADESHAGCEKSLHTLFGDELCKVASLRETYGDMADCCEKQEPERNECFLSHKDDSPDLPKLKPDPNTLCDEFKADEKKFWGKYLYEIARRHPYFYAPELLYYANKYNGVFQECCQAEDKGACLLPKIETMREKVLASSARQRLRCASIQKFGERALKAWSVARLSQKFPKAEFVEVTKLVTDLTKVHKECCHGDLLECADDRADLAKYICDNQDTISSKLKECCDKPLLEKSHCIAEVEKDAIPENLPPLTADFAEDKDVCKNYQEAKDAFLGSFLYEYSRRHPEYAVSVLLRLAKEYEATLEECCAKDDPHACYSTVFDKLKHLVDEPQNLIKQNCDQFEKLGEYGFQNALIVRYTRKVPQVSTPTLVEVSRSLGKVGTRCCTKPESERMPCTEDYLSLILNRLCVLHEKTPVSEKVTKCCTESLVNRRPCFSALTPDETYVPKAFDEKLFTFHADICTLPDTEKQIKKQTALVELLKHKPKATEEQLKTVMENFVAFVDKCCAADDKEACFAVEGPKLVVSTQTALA

By Kd is commonly meant a measure of binding affinity in units of concentration. As a reminder, the koff is the first-order rate constant of dissociation. By kon is commonly meant a measure of how fast the partners come together. Turning to B1, in assay [1], the Kd was 4.04 nM, the koff stood at 0.00116 s⁻¹ and the kon is 288000 M⁻¹ s⁻¹.
Take B2: the binding result in assay [2] was “no binding”.
Take B3: in assay [3], the “Positive rate of CTL cells transfection” value stood at 85%. Also, in assay [4], the “CYTOTOXICITY (%), effector target ratio 1:1, LDH release, 18 h” value was found to be 56.7%; the “CYTOTOXICITY (%), effector target ratio 1:3, LDH release, 18 h” value was 25.3%; the “CYTOTOXICITY (%), effector target ratio 3:1, LDH release, 18 h” value was 86.5%.
B4: in assay [2], the binding result is listed as “no binding”.
For B5, in assay [3], the “Positive rate of CTL cells transfection” value is 83%. Besides, in assay [4], the “CYTOTOXICITY (%), effector target ratio 1:1, LDH release, 18 h” value was 60.2%; the “CYTOTOXICITY (%), effector target ratio 1:3, LDH release, 18 h” value is 31.9%; the “CYTOTOXICITY (%), effector target ratio 3:1, LDH release, 18 h” value is 89.3%.
Regarding B6, in assay [3], the “Positive rate of CTL cells transfection” value was determined as 75%.
For B7, in assay [1], the Kd came out at 7.17 nM, the off-rate (koff) was 0.000789 s⁻¹ and the kon turned out to be 110000 M⁻¹ s⁻¹.
In the assay with scFv-P3F2-Fc, B8 showed an equilibrium dissociation constant (Kd) of 16.2 nM, a dissociation rate constant (koff) of 0.000935 s⁻¹ and an on-rate constant (kon) of 57700 M⁻¹ s⁻¹. For the same molecule, in the assay with scFv-P1A6E-Fc, the Kd came to 18.9 nM, the koff amounted to 0.00156 s⁻¹ and the kon was determined as 82500 M⁻¹ s⁻¹.
Consider B9, for which, in assay [3], the “Positive rate of CTL cells transfection” value was 71%.
